Values belong to the molecule of their own block, whether it stands above or below them.
Legend:
[1] = target: FLAG tagged chimeric IL-10R1/CRF2-12 receptor (IL-10R1 extracellular domain fused to the transmembrane and intracellular domains of CRF2-12) on HT-29 cells (human) (UniProt Q13651); experiment: cell-based or functional assay
[2] = target: T1, intact human CRF2-4 chain expressed alone on hamster 16-9 cells (human, UniProt Q08334 20-325); experiment: crosslinking of 32P-labeled ligand to transfected hamster cells, 7.5% SDS-PAGE
T1 construct: whole, on cells; From plasmid pEF-CRF2-4 (pEF-IL-10R2), on hamster 16-9 cells without CRF2-12/γR1; also called IL-10R2
T1 sequence (looked up): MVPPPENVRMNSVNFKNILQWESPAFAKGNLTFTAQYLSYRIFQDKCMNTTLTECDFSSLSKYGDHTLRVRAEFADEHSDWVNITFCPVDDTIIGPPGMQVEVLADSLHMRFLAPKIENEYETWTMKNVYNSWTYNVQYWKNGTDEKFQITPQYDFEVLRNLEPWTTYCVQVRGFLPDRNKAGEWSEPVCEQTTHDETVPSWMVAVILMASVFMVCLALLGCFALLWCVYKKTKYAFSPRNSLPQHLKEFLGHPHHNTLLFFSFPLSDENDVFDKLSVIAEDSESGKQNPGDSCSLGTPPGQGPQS
Method: (§1) Untreated 32P-labeled FL-IFN-λ1-P ([32P]FL-IFN-λ1-P) was loaded as a control (lane 1). ([32P]FL-IFN-λ1-P) was also incubated in DMEM medium with 10% FBS and crosslinking in solution was performed as described (32) (lane 2). The untransfected and transfected hamster cells described in FIG. 22 row 1 were incubated with 32P-labeled FL-IFN-λ1-P with or without addition of a 100-fold excess of unlabeled IFN-λ1 (competitor), washed, harvested and crosslinked. The extracted crosslinked complexes were analyzed on 7.5% SDS-PAGE. The molecular weight markers are shown on the left.
(§2) In another embodiment of the present invention, the interaction between IFN-λ and its receptor was characterized by crosslinking (FIG. 22). Crosslinking experiments were performed with radiolabeled IFN-λ (FIGS. 20B and C) and the IFN-λ receptor chains expressed in hamster cells (FIG. 22). COS cell-expressed FL-IFN-λ1-P was purified to homogeneity and radiolabeled (FIGS. 20B and C). […] FL-IFN-λ1-P was labeled with [32P]ATP and used for crosslinking to cells as described (Li, et al., (1989) Proc Natl Acad Sci USA 86, 558-562; Kotenko, et al., (1995) J Biol Chem 270, 20915-20921; Pestka, et al., (1999) Protein Expr Purif 17, 203-214; Kotenko, et al., (2001) J Immunol 166, 7096-7103). […]

[3] = target: T2, chimeric human CRF2-12/γR1 chain expressed alone on hamster 16-9 cells (human, UniProt P15260 246-489); experiment: as above
T2 construct: domain: transmembrane and intracellular domains; On the cell surface of hamster 16-9 cells, without human CRF2-4; also called CRF2-12/IFN-γR1; CRF2-12/gR1
T2 sequence: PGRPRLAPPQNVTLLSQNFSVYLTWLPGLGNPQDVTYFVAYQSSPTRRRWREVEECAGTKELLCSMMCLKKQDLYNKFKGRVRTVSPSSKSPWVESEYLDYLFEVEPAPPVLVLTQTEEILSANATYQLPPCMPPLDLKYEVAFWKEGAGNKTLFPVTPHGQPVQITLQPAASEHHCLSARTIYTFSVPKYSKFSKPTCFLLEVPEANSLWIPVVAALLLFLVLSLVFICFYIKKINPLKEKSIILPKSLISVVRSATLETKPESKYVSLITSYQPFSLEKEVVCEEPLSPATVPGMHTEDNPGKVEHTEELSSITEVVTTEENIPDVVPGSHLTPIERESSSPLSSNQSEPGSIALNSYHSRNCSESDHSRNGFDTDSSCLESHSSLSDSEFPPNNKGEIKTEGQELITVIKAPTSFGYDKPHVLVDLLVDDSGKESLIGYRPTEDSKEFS
Method: as §1, §2

[4] = target: the molecule itself; experiment: crosslinking of the 32P-labeled ligand to itself in solution, SDS-PAGE
Method: as §1
In another embodiment of the present invention, the interaction between IFN-λ and its receptor was characterized by crosslinking (FIG. 22). Crosslinking experiments were performed with radiolabeled IFN-λ (FIGS. 20B and C) and the IFN-λ receptor chains expressed in hamster cells (FIG. 22). COS cell-expressed FL-IFN-λ1-P was purified to homogeneity and radiolabeled (FIGS. 20B and C). […] FL-IFN-λ1-P was labeled with [32P]ATP and used for crosslinking to cells as described (Li, et al., (1989) Proc Natl Acad Sci USA 86, 558-562; Kotenko, et al., (1995) J Biol Chem 270, 20915-20921; Pestka, et al., (1999) Protein Expr Purif 17, 203-214; Kotenko, et al., (2001) J Immunol 166, 7096-7103).

[5] = target: T1, intact human CRF2-4 chain expressed …; experiment: flow cytometry with anti-FLAG antibody on transfected hamster cells
Method: (§3) A. Four cell lines used in these experiments are schematically shown (top panels): the parental Chinese hamster 16-9 cells and cells expressing the human CRF2-12/gR1 chimeric receptor or human IL-10R2 alone or both receptors together. […] The cells were also tested for their ability to bind FL-IFN-λs (panels E, F, G, H and I). The cells were incubated for three hours at 20° C. with conditioned medium from COS-1 cells transfected with one of the following plasmids: the control vector pEF-SPFL (open areas, thick lines); the pEF-FL-IFN-λ1 (FL-IFN-λ1; open areas, thin lines; panels E, F, G and H) or the pEF-FL-IFN-λ2 (FL-IFN-λ2; shaded areas, thin lines; panel I). […] Cells expressing both chains were co-incubated with either FL-IFN-λ1 or FL-IFN-λ2 ([…] of conditioned media from COS cells expressing FL-IFN-λ1/2) and with E. coli produced IFN-λ1 lacking the FLAG epitope (IFN-λ1E. coli, 1 mg/ml) (open areas, thin lines; panels H and I). Ligand binding to the cell surface was determined by flow cytometry with anti-FLAG antibody (Sigma) as the primary antibody and fluorescein isothiocyanate-conjugated goat anti-mouse IgG (Santa Cruz) as the secondary antibody. The ordinate represents relative cell numbers, and the abscissa relative fluorescence (logarithmic scale).

[6] = target: T2, chimeric human CRF2-12/γR1 chain …; experiment: as above
Method: as §3

Chain of FLAG tagged chimeric IL-10R1/CRF2-12 receptor (IL-10R1 extracellular domain fused to the transmembrane and intracellular domains of CRF2-12) on HT-29 cells (human) (Q13651 other isoform, or with tags, fused parts or gaps mutant limits assumed): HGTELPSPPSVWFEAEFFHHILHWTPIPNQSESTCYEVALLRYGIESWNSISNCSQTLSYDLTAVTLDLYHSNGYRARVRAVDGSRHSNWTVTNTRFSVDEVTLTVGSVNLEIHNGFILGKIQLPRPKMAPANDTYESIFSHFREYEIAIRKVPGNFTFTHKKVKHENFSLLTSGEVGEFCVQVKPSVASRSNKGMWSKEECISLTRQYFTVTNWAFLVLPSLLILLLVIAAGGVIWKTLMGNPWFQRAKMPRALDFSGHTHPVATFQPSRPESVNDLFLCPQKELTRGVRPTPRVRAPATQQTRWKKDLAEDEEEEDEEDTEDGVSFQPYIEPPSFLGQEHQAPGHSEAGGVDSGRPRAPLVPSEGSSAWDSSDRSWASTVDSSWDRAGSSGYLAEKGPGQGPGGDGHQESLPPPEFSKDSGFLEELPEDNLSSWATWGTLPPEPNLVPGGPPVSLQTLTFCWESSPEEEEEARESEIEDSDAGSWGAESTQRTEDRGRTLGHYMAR

Molecule: IL-10 (from UniProt P22301 19-178) (ligand)
MHC class I antigen induction and antiviral activity of HT-29 cells expressing FL-IL-10R1/CRF2-12 [1]: 1 ng/mL
apoptosis of HT-29 cells expressing FL-IL-10R1/CRF2-12 [1]: > 10 ng/mL

binding result [2]: no binding
binding result [3]: no binding
B1: 32P-labeled FL-IFN-λ1-P (ligand, not shown: small tags and cut ends)
chain: PTSKPTPTGKGCHIGRFKSLSPQELASFKKARDALEESLKLKNWSCSSPVFPGNWDLRLLQVRERPVALEAELALTLKVLEAAAGPALEDVLDQPLHTLHHILSQLQACIQPQPTAGPRPRGRLHHWLHRLQEAPKKESAGCLEASVTFNLFRLLTRDLKYVADGNLCLRTSTHPESTRRASVA
modifications: labeled with [32P]ATP on the C-terminal Arg-Arg-Ala-Ser-Val-Ala tag (consensus site of the cAMP-dependent protein kinase)
notes: Expressed in COS cells, purified on anti-FLAG M1 gel and radiolabeled; Primer ifnl-7R may encode extra junction residues before the RRASVA tag; also called [32P]FL-IFN-λ1-P; radiolabeled IFN-λ
binding result [4]: no binding

binding result [5]: no binding
binding result [6]: no binding
B2: FL-IFN-λ1 (IFN-λ1 tagged at its N-terminus with the FLAG epitope) (ligand, not shown: small tags and cut ends)
chain: PTSKPTPTGKGCHIGRFKSLSPQELASFKKARDALEESLKLKNWSCSSPVFPGNWDLRLLQVRERPVALEAELALTLKVLEAAAGPALEDVLDQPLHTLHHILSQLQACIQPQPTAGPRPRGRLHHWLHRLQEAPKKESAGCLEASVTFNLFRLLTRDLKYVADGNLCLRTSTHPEST
notes: Used as conditioned medium of transiently transfected COS-1 cells; also called FL-IFN-λ1gene product

— patent publication US20090220511A1 (RUTGERS THE STATE UNIVERSITY OF NEW JERSEY, published 2009)
